Reference: patent US12649776B2, “Scaffold proteins and therapeutic nanoconjugates based on nidogen” (UNIVERSITAT AUTÒNOMA DE BARCELONA, priority 2019, dated 2026)

Tests used:
[1] = Intrinsic fluorescence (Centre of Spectral Mass) vs temperature, unfolding temperature determination; format: physicochemical; settings: for Stability indexes Tm, Tonset and ΔT from CSM profiles: carbonate and FDA-approved buffers A9, B6, D1
Procedure: Fluorescence spectra were recorded in a Cary Eclipse spectrofluorimeter (Agilent Technologies, Mulgrave, Australia). A quartz cell with 10 mm path length and a thermostated holder was used. The excitation and emission slits were set at 5 nm. Excitation wavelength (λex) was set at 295 nm. Emission spectra were acquired within a range from 310 to 450 nm. The protein concentration was 0.2 mg/mL in carbonate buffer (166 mM NaCO3H, pH 8). In order to evaluate the conformation stability against heating we obtained the fluorescence spectra at each temperature at a 1° C./min scan rate and we calculated the Centre of Spectral Mass (CSM) for each spectrum. CSM is a weighted average of the fluorescence spectrum peak. Also it is related with the relative exposure of the Trp to the protein environment. The maximum red-shift in the CSM of the Trp, is compatible with a large solvent accessibility (Li, T. M.; et al., Biochemistry 1976, 15, 5571-80; Ruan, K and Weber, G, Biochemistry 1989, 28 (5), 2144-53 and Mohana-Borges, R. et al., Proceedings of the National Academy of Sciences of the United States of America 1999, 96 (14), 7888-93) and the protein unfolding.
The Centre of Spectral Mass (CSM) was calculated for each of the fluorescence emission according to Eq.1 (Lakowicz, J. R.; et al., 1991, Biophys Chem 39(1), 79-84), where Ii is the fluorescence intensity measure at the wavelength λi.
Midpoint unfolding temperature (Tm) was determined as the temperature value that correspond to the inflexion point of the CSM vs T° curve. We also determined the Tonset as the temperature where the CSM value begins to increase.

[2] = Volume size distribution of protein nanoparticles and nanoconjugates by Dynamic Light Scattering (DLS); format: physicochemical; settings: for Nanoparticle size after assembly with ZnCl2 (DLS): assembled with ZnCl2 (0.04 mM and further concentrations up to 0.16 mM)
Procedure: Volume size distribution of all protein nanoparticles and nanoconjugates were determined by Dynamic Light Scattering (DLS) at 633 nm in a Zetasizer Nano ZS (Malvern Instruments) in triplicate.
Volume size distribution of protein nanoparticles was determined in a Zetasizer Nano ZS (Malvern Instruments) by Dynamic Light Scattering (DLS) at 633 nm in triplicates.
The integrity of the recombinant proteins was checked by mass spectrometry (MALDI-TOF), TGX (Tris-Glycine eXtended) Stain-Free acrylamide gels electrophoresis (BioRad) and Western Blot analysis using anti-His monoclonal antibody (1:1000; Santa Cruz, ref. 57598). Protein concentration was determined by Bradford (Biorad) assay with an Albumin (Roche) standard curve. GFP fluorescence emission (510 nm) was determined on purified proteins with a Cary Eclipse fluorescence spectrophotometer (Agilent Technologies) using an excitation wavelength of 450 nm. The volume and size distribution of nanoparticles were measured by dynamic light scattering (DLS) at 633 nm through a Zetasizer Nano ZS (Malvern Instruments) using quartz cuvettes.

[3] = Precipitation assay against increasing concentrations of ZnCl2; format: physicochemical; settings: increasing ZnCl2 up to 0.16 mM
Procedure: T22-NIDOmut3-H6, T22-NIDOmut4 T215V-H6 and T22-NIDOmut5-H6 were selected to proceed with the characterization due to their best production yields (24, 26 and 28 mg/L, respectively). At this point, volume-size distribution of each candidate was studied via DLS (FIG. 16). All three candidates were equivalent to the original T22-NIDOmut2-H6 in size before and after assembly into nanoparticles with ZnCl2 (0.04 mM). […] Precisely because Zn is used to mediate this assembly, it was deemed appropriate to perform a precipitation assay against increasing concentrations of ZnCl2, up to 0.16 mM, (FIG. 17A) to test whether the new proteins were resistant to Zn-induced precipitation or not.

[4] = Stability study in buffers: soluble protein loss after dialysis (Bradford, Nanodrop)
Procedure: For the stability study in other buffers, purified protein fractions were dialyzed against chosen FDA-approved buffer and carbonate as control. Protein concentration was initially set at 2.0 mg/ml in carbonate buffer and dialysed into 0.5 ml of each new buffer. Samples were centrifuged for 15 min 15000 g to remove precipitate and the remaining soluble protein concentration was determined by Bradford's assay and Nanodrop.
The stability of resulting proteins was studied in three FDA-approved buffers, and carbonate as control buffer.

CXCR4+ HeLa cells = assay: In vitro cell viability of FdU nanoconjugates (CellTiter-Glo Luminescent Cell Viability Assay); format: cell-based, Human; settings: CXCR4+ HeLa cell line, 25 nM, 48 h
Procedure: HeLa cells (ATCC, CCL-2) were incubated in opaque 96-well plates in 90 μl of MEM alpha medium (Gibco) containing 10% of Fetal bovine serum (Gibco) in humidified atmosphere and 5% CO 2 at 37° C. Then, 10 μl of T22-NIDOmut3-H6-FdU and T22-NIDOmut2-H6-FdU nanoconjugates were added along with the control T22-NIDOmut3-H6 at 25 nM final concentration and incubated for additional 48 h. Cell viability was finally tested by CellTiter-Glo® Luminescent Cell Viability Assay (Promega) in a Victor 3 luminescent plate reader (Perkin Elmer). All samples were analyzed in triplicate and data expressed as mean % of viability (related to control cells)+/− standard error.

B1: STMH6: Isolated hexahistidine-tagged stefin A (protein, UniProt P01040 1-98, looked up)
Cystatin-A: MIPGGLSEAKPATPEIQEIVDKVKPQLEEKTNETYGKLEAVQYKTQVVAGTNYYIKVRAGDNKYMHLKVFKSLPGQNEDLVLTGYQVDKNKDDELTGF
modifications: His6 tag
notes: Isolated hexahistidine-tagged stefin A
Tm ([1]; *Tm value assuming that the maximal CSM values represent the entirely unfolding state of the protein): ≅76° C.*
Tonset, 1 ([1]; temperature where the CSM value begins to increase): 70 °C

B2: T22-NIDOmut2-H6: Modular protein: N-terminal T22 CXCR4 ligand, linker, mutated human nidogen-1 G2 domain (NIDOmut2), C-terminal poly-histidine; SEQ ID NO: 61 (protein)
chain: RRWCYRKCYKGYCYRKCRGGSSRSSSPQRVNGKVKGRIFVGSSQVPIVFENTDLASYVVMNHGNSYTAISTIPETVGYSLLPLAPVGGIIGWMFAVEQDGFKNGFSITGGEFTRQAEVTFVGHPGNLVIKQRFSGIDEHGHLTIDTELEGRVPQIPFGSSVHIEPYTELYHYSTSVITSSSTREYTVTEPERDGASPSRIYTYQWRQTITFQECVHDDSRPALPSTQQLSVDSVSVLYNQEEKILAYALSNSIGPVREGSPDAKHHHHHH
Nanoparticle size (volume size distribution, DLS) ([2]; self-assembled material in storage (carbonate) buffer): ~12 nm
Loss of the initial soluble protein by Zn-induced precipitation [3]: up to 66%
% Precipitation (Bradford) ([4]; buffer A9): 12.7%
% Precipitation (Nanodrop) ([4]; buffer A9): 29.0%
% Precipitation (Bradford) ([4]; buffer B6): None
% Precipitation (Nanodrop) ([4]; buffer B6): None
% Precipitation (Bradford) ([4]; buffer Carbonate): 17.6%
% Precipitation (Nanodrop) ([4]; buffer Carbonate): 23.9%
% Precipitation (Bradford) ([4]; buffer D1): 84.1%
% Precipitation (Nanodrop) ([4]; buffer D1): 86.5%

B3: T22-NIDOmut3-H6: T22-linker-NIDOmut3-H6 fusion protein, SEQ ID NO: 106 (protein)
chain: RRWCYRKCYKGYCYRKCRGGSSRSSSPQRVNGKVKGRIFVGSSQVPIVFENTDLASYVVMNHGNSYTAISTIPETVGYSLLPLAPVGGIIGWMFAVEQDGFKNGFSITGGEFTRQAEVTFVGHPGNLVIKQRFSGIDEKGNLTIDTELEGRVPQIPFGSSVHIEPYTELYHYSTSVITSSSTREYTVTEPERDGASPSRIYTYQWRQTITFQECVHDDSRPALPSTQQLSVDSVSVLYNQEEKILAYALSNSIGPVREGSPDAKHHHHHH
modifications: T22-NIDOmut3-H6
Nanoparticle size after assembly with ZnCl2 (DLS) [2]: 17 nm
Cytotoxicity (CXCR4+ HeLa cells): did not cause any cytoxicity
Stability indexes Tm, Tonset and ΔT from CSM profiles [1]: shows the highest values
% Precipitation (Bradford) ([4]; buffer A9): 10.25%
% Precipitation (Nanodrop) ([4]; buffer A9): 15.4%
% Precipitation (Bradford) ([4]; buffer B6): 5.4%
% Precipitation (Nanodrop) ([4]; buffer B6): None
Solubility after dialysis ([4]; buffer B6): remained highly soluble
% Precipitation (Bradford) ([4]; buffer Carbonate): 17.6%
% Precipitation (Nanodrop) ([4]; buffer Carbonate): 24.5%
% Precipitation (Bradford) ([4]; buffer D1): 83.6%
% Precipitation (Nanodrop) ([4]; buffer D1): 84.3%

B4: T22-NIDOmut5-H6: T22 fusion protein, SEQ ID NO: 113 (protein)
chain: RRWCYRKCYKGYCYRKCRGGSSRSSSPQRVNGKVKGRIFVGSSQTPIVFENTDLASYVVMNHGNSYTAISTIPETVGYSLLPLAPVGGIIGWMFAVEQDGFKNGFSITGGEFTRQAEVTFQGHPGNLVIKQRFSGIDEKGNLTIDTELEGRVPQIPEGSSVHIEPYTELYHYSTSVITSSSTREYTVTEPERDGASPSRIYTYQWRQTITFQESTHDDSRPALPSTQQLSVDSVSVLYNQEEKILAYALSNSIGPVREGSPDAKHHHHHH
modifications: T22-NIDOmut5-H6
Nanoparticle size after assembly with ZnCl2 (DLS) [2]: nanoparticles of higher size
Stability indexes Tm, Tonset and ΔT from CSM profiles [1]: Second protein with better stability indexes
% Precipitation (Bradford) ([4]; buffer A9): None
% Precipitation (Nanodrop) ([4]; buffer A9): None
Solubility after dialysis ([4]; buffer A9): best suited
% Precipitation (Bradford) ([4]; buffer B6): 15.4%
% Precipitation (Nanodrop) ([4]; buffer B6): 26.6%
% Precipitation (Bradford) ([4]; buffer Carbonate): 60.4%
% Precipitation (Nanodrop) ([4]; buffer Carbonate): 24.2%
% Precipitation (Bradford) ([4]; buffer D1): 50.1%
% Precipitation (Nanodrop) ([4]; buffer D1): 62.4%
